B1: Zinc finger protein ZFPM1 (Mus musculus), O35615 (parent)
chain: MSRRKQSNPRQIKRSLRDMEAGEEAKAMDSSPKEQEAPDPEAPAIEEPPSPPREDVSPPAVPAPPESPEDPEDMEGQELEMRPQDEEKEEKEEEAAMASPWSGPEELELALQDGQRCVRARLSLTEGLSWGPFYGSIQTRALSPEREEPGPAVTLMVDESCWLRMLPQVLTEEAANSEIYRKDDALWCRVTKVVPSGGLLYVRLVTEPHGAPRHPVQEPVEPGGLAPVHTDIQLLPQQAGMASILATAVINKDVFPCKDCGIWYRSERNLQAHLLYYCASRQRAGSPVSATEEKPKETYPNERVCPFPQCRKSCPSASSLEIHMRSHSGERPFVCLICLSAFTTKANCERHLKVHTDTLSGVCHNCGFISTTRDILYSHLVTNHMVCQPGSKGEIYSPGAGHPAAKLPPDSLAGFQQHSLMHSPLVPADKAPTPSSGLDSKAEVTNGETRVPPQNGGSSESPAAPRTIKVEAAEEPEATRASGPGEPGPQAPSRTPSPHSPNPVRVKTELSSPTPGSSPGPGELTMAGTLFLPQYVFSPDAGTTTVPTAPQASEILAKMSELVHNRLQQGAGSSGAAGTPTGLFSGTKGATCFECEITFNNINNFYVHKRLYCSGRRAPEDPPTVRRPKAATGPARAPAGAAAEPDPSRSSPGPGPREEEASGTTTPEAEAAGRGSEGSQSPGSSVDDAEDDPSRTLCEACNIRFSRHETYTVHKRYYCASRHDPPPRRPPAPTTAPGPAAPALTAPPVRTRRRRKLYELPAAGAPPPAAGPAPVPVVPSPTAELPSSPRPGSASAGPAPALSPSPVPDGPIDLSKRPRRQSPDAPTALPALADYHECTACRVSFHSLEAYLAHKKYSCPAAPLRTTALCPYCPPNGRVRGDLVEHLRQAHGLQVAKPAASPGAEPRTPAERAPRDSPDGRAPRSPSPAPENTPSDPADQGARTPSKGPPAPAPAPGGGGGHRYCRLCNIRFSSLSTFIAHKKYYCSSHAAEHVK

Variants of: B1
Conditions: with tacc3_mouse Tacc3, Q9JJ11
tacc3_mouse Tacc3, Q9JJ11, sequence (Q9JJ11 whole entry): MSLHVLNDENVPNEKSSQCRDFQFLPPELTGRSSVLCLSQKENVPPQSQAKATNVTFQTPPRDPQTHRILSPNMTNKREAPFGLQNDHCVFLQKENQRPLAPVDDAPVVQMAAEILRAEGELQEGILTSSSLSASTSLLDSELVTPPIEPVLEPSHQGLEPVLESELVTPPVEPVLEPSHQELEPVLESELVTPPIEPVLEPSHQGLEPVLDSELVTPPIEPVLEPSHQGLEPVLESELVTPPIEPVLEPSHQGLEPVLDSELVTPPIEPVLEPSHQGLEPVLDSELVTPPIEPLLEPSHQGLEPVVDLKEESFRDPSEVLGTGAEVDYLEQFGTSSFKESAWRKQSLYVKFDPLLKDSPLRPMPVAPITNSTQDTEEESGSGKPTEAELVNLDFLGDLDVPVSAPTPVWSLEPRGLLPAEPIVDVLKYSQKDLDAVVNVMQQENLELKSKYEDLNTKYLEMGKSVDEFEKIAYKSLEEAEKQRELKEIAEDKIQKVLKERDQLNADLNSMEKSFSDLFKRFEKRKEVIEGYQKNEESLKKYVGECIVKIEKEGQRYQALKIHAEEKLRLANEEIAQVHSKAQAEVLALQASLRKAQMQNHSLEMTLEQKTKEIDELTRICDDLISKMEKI

| effect of a mutation on the interaction | Variant |
| --- | --- |
| decreasing interaction | V354A |
| decreasing interaction | N347A |

The next lines start with the variant.

| Variant | effect of a mutation on the interaction |
| --- | --- |
| T344A | decreasing interaction |
| T343A | decreasing interaction |
| R350A | decreasing interaction |

From IntAct's records for PubMed 15234987
